According to patent US20170015742A1 (published 2017):
Positions count from the first letter of the chain named. Where “and” joins values, the source holds several entries; their conditions need not be identical. Equal entries are not always repeated.

B1: BEW-9C2-D6 (antibody, IgG2b, V domains shown)
VH: QIQLVQSGPELKKPGESVKVSCKASGYTFTNYGIHWVKQAPGQGLQYVGWINTETGRPTYADDFKGRFVFFLETSASTAYLQINNLKNEDMATYFCARPLYYGYAHYFDYWGQGVMVTVSS
VL: DIQMTQSPASLSASLEEIVTITCQASQDIGNWLAWYQQKPGKSPQLLIYGATSLADGVPSRFSGSRSGTQYSLKISRLQVEDIGIYYCQQASSVTYTFGAGTKLELK
B2: BEW-1B10-B9-C3 (antibody, IgG2a, V domains shown)
VH: EVQLVESGGGLVQPGRSLKLSCAASGFSFSKYDMAWFRQTPTKGLEWVASITTSGVGTYYRDSVKGRFTVSRDNAKSTLYLQMDSLRSEDTATYYCARGYGAMDAWGQGTSVTVSS
VL: DIQMTQSPASLSASLEEIVTITCKASQDIDDYLSWYQQKPGKSPQLVIYAATRLADGVPSRFSGSGSGTQYSLKISRLQVDDSGIYYCLQSSSTPWTFGGGTNLELK
B3: BEW-9D2-E8 (antibody, IgG2a, V domains shown)
VH: QIQLVQSGPELKKPGESVKISCKASGYTFTNYGMYWVKLAPGQGLQYLGWINTETGKPTYADDFKGRFVFFLETSASTAYLQINNLRNEDMATYFCARPSDYYDGFWFAYWGQGTLVTVSS
VL: DTVLTQSPALTVSPGERVSISCRASEWVNSYMHWYQQNPGQQPKLLIYKASNLASGVPARFSGSGSGTDFTLTLDPVEADDTATYFCQQSWNDPLTFGSGTKLEIK
B4: BEW-9E7-B4 (antibody, IgG2b, V domains shown)
VH: QIQLVQSGPELKKPGESVKISCKASGYTFTNYGMYWVKQAPGQGLQYMGWIDTETGKPTYADDFKGRFVFFLETSASTAYLQINNLRNEDMATYFCARWGYTSDYYYGWFPDWGQGTLVTVST
VL: B3 VL with T11A, W27G, T73N, L74I, D75H, S90N, D93V
B5: BEW-1E3-D6 (antibody, IgG2b, V domains shown)
VH: QIQLVQSGPELKKPGESVKISCKASGYPFTNSGMYWVKQAPGQGLQYMGWINTEAGKPTYADDFKGRFVFFLETSASTAYLQINNLKNEDMATYFCARWGYISDNSYGWFDYWGQGTLVTVSS
VL: B3 VL with T11A, W27G, N29Y, L74I, Q88H, S90N
B6: BEW-9E3-B9 (antibody, IgG2a, V domains shown)
VH: B3 VH with L39Q, L48M, Y80F, R87K, A109P, T115A
VL: B3 VL with V3I, T11A, V18I, W27G, L74I
B7: BDB-4G8-D4 (antibody, IgG2b, V domains shown)
VH: QIQLVQSGPELKKPGESVKISCKASGYTFTNYGMYWVKQAPGQGLQYMGWINTETGKPTYADDFKGRFVFFLETSASTAYLQINNLKNEDMATYFCARTNYYYRSYIFYFDYWGQGTMVTVSS
VL: DTVLTQSPALAVSPGERVSISCRASESVSTHMHWYQQKPGQQPKLLIYGASNLESGVPARFSGSGSGTDFTLTIDPVEADDTATYFCQQSWNDPFTFGAVTKLELK
B8: BEW-9A8-E2 (antibody, IgG2a, V domains shown)
VH: QIQLVQSGPELKKPGESVKISCKASGYTFTNYGMYWVKQAPGQGLQYMGWINTETGKPIYADDFKGRFVFFLETSASTAYLQINNLKNEDMATFFCARVDYDGSFWFAYWGQGTLVTVSS
VL: B7 VL with H31V, M32I, Y48H, S90H, F95P, V100G, L105M
B9: BED-4G10-C8 (antibody, IgG2b, V domains shown)
VH: QVQLQQSGTELVKPGSSVKISCKASGYTFTSNYMHWIRQQPGNGLEWIGWIYPGDGDTNYNHNFNGKATLTADKSSSTAYMQLSSLTSEDFAVYFCASSTRAIPGWFTYWGQGTLVTVSS
VL: B7 VL with R23W, H31L, P39L, S62R, N92S, F95Y, V100G
B10: BEW-10H2-B9 (antibody, IgG2b, V domains shown)
VH: QIQLVQSGPELKKPGESVKISCKASGYSFTNFGLYWVKQAPGQGLQYMGWIDTETGKPTYADDFRGRFVFFLETSASTAYLQINNLKNEDMATYFCARVYGYPSWYFDFWGPGTMVTVSS
VL: DIQMTQSPASLSTSLEEIVTITCQASQDIDNYLSWYQQKPGKSPQLLIHSATSLADGVPSRFSGSRSGTQFSLKIHRLQVEDTGIYYCLQHFFPPWTFGGGTKLELK
B11: BEW-8E6-E4 (antibody, IgG2a, V domains shown)
VH: QIQLVQSGPELKKPGESVKISCKASGYTFTDYAMHWVKQAPGKVLKWMGWINTFTGKPTYIDDFKGRFVFSLEASASTANLQISDLKNEDTATYFCARGNYYSGYWYFDFWGPGTMVTMSS
VL: DIQMTQSPASLSASLGETISIECRASEDISSNLAWYQQKSGKSPQLLIFAANRLQDGVPSRFSGSGSGTQFSLKISGMQPEDEGDYFCLQGSKFYTFGAGTKLELK
B12: BEW-1B4-C4 (antibody, IgG2b, V domains shown)
VH: QIQLVQSGPELKKPGESVKISCKASGYSFTNYGMYWVKQAPGQGLQYMGWIDTETGKPTYTDDFKGRFVFFLETSASTAYLQINNLKNEDMATYFCARWSGDTAGIRGPWFAYWGQGTLVTVSS
VL: DIRMTQSPASLSASLGETVNIECLASEDIYSDLAWYQQKPGKSPQLLIYNANDLQKGVPSRFSGSGSGTQYSLKINSLQSEDVATYFCQQYNYYPGTFGAGTKLELK
notes: Rat hybridoma monoclonal antibody
B13: BEW-9E10-E7 (antibody, IgG2a, V domains shown)
VH: B12 VH with V5L, S28T, K57R, T61A, A104T
VL: B12 VL with K42R, D53G, K56N, S63G, Y94F
B14: BEW-3A1-D10-G9 (antibody, IgG2b, V domains shown)
VH: QVQLEQSGAELVKPGTSVKLSCMASGYTSSSNHMNWMKQTTGQGLEWIGIINPGSGGTRYNVKFEGKATLTVDKSSSTAFMQLNSLTPEDSAVYYCARAGFPGPFSYYAMGAWGQGTSVTVSS
VL: DIQMTQSPPVLSASVGDRVTLSCKASQNIHNNLDWYQQKHGEAPKLLIFYTNNLQTGIPSRFSGSGSGTDYTLTISSLQPEDVATYYCYQYNSGYTFGAGTKLELK
B15: BEW-6C2-C8 (antibody, IgG2b, V domains shown)
VH: EVQLVESGGGLVQPGSSLKLSCAASGFTFSYYGMHWIRQAPKKGLEWMALIYYDSSKMYYADSVKGRFTISRDNSKNTLYLEMNSLRSEDTAMYYCAAGGTAPVYWGQGVMVTVSS
VL: NIQLTQSPSLLSASVGDRVTLSCKGSQNIANYLAWYQQKLGEAPKLLIYNTDSLQTGIPSRFSGSGSGTDYTLTISSLQPEDVATYFCYQSNNGYTFGAGTKLELR
B16: BEW-5C3-E7 (antibody, IgG2b, V domains shown)
VH: QIQLVQSGPELKKPGESVKISCKASGYTFTNYGVYWVKQAPGQGLQYMGWINTETGKPTYADDFKGRFVFFLETSTNTAYLQINNLKNEDMATFFCARARQLDWFVYWGQGTLVTVSS
VL: DTVLTQSPALTVSPGERVSISCRARESLTTSLCWFQQKPGQQPKLLIYGASKLESGVPARFSGSGSGTDFTLTIDPVEADDTATYFCQQSWYDPPTFGGGTKLELK
B17: hBFU-3E2.1 (antibody, V domains shown)
VH: EVQLVQSGAEVKKPGSSVKVSCKASGYTFTESYMYWVKQAPGQGLELIGRIDPEDGSTDYVEKFKNKATLTADKSTSTAYMELSSLRSEDTAVYFCARFGARSYFYPMDAWGQGTTVTVSS
VL: ETVLTQSPATLSLSPGERATLSCRASESVSTLMHWYQQKPGQQPRLLIYGASNLESGVPARFSGSGSGTDFTLTISSLEPEDFAVYFCQQSWNDPWTFGGGTKVEIK
B18: hBFU-3E2.2 (antibody, V domains shown)
VH: B17 VH with K38R, K67R, A68V, F95Y
VL: B17 VL
B19: hBFU-3E2.3 (antibody, V domains shown)
VH: B17 VH
VL: ATQLTQSPSSLSASVGDRVTISCRASESVSTLMHWYQQKPGKQPRLLIYGASNLESGVPSRFSGSGSGTDFTLTISSLQPEDFATYFCQQSWNDPWTFGGGTKVEIK
B20: hBFU-3E2.4 (antibody, V domains shown)
VH: B17 VH with K38R, K67R, A68V, F95Y
VL: B19 VL

Target: T1, Human VEGF-A 165 (human, UniProt P15692 207-395)
T1 construct: also called hVEGF165; huVEGF-A165
Assay: Biacore SPR (Example 1.1)
Method: Unreacted moieties on the biosensor surface were blocked with ethanolamine. For kinetic analysis, rate equations derived from the 1:1 Langmuir binding model were fitted simultaneously to multiple antigen injections (using global fit analysis) with the use of Scrubber 2 (BioLogic Software), Biacore Biaevaluation 4.0.1 software or Biacore T100 Evaluation software. Purified antibodies or DVD-Ig molecules were diluted in running buffer for capture across goat anti-human Fc reaction surfaces. Antibodies or DVD-Ig molecules to be captured as a ligand (1 μg/ml) were injected over reaction matrices at a flow rate of 10 μl/minute. During the assay, all measurements were referenced against the capture surface alone (i.e., with no captured antibody or DVD-Ig molecule). […] The equilibrium dissociation constant KD (M) of the reaction between antibodies and the target antigen was then calculated from the kinetic rate constants by the following formula: KD=Koff/Kₒₙ. Binding was recorded as a function of time and kinetic rate constants were calculated. In this assay, on-rates as fast as 10⁶M⁻¹s⁻¹ and off-rates as slow as 10⁻⁶ s⁻¹ could be measured. […]

T1 sequence (P15692 other isoform, or with tags, fused parts or gaps limits assumed): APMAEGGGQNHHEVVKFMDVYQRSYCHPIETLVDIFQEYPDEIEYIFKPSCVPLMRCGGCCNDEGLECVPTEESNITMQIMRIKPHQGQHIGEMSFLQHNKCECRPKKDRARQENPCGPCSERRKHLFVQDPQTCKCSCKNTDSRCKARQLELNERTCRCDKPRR

| Binder | Kd | kon |
| --- | --- | --- |
| B1 | ≤ 0.18 pM | 5.5e+06 M⁻¹ s⁻¹ |
| B2 | 16 pM | 4.4e+06 M⁻¹ s⁻¹ |
| B3 | 14 pM | 7e+06 M⁻¹ s⁻¹ |
| B4 | 4.3 pM | 5.9e+06 M⁻¹ s⁻¹ |
| B5 | 10 pM | 1.4e+07 M⁻¹ s⁻¹ |
| B6 | 14 pM | 6.7e+06 M⁻¹ s⁻¹ |
| B7 | ≤ 0.81 pM and 1.2 pM | ≥ 1e+07 M⁻¹ s⁻¹ and 1.4e+07 M⁻¹ s⁻¹ |
| B8 | 0.96 pM | 7.4e+06 M⁻¹ s⁻¹ |
| B9 | 60 pM | 1.8e+07 M⁻¹ s⁻¹ |
| B10 | 11 pM | 2.4e+07 M⁻¹ s⁻¹ |
| B11 | 17 pM | 6.9e+06 M⁻¹ s⁻¹ |
| B12 | 7.4 pM | 1.8e+07 M⁻¹ s⁻¹ |
| B13 | 3.1 pM | 1.3e+07 M⁻¹ s⁻¹ |
| B14 | 140 pM | 1e+07 M⁻¹ s⁻¹ |
| B15 | 12 pM | 6.9e+06 M⁻¹ s⁻¹ |
| B16 | 3.9 pM | 1.2e+07 M⁻¹ s⁻¹ |

Target: recombinant human PDGF-BB (human, UniProt P01127 82-190)
Assay: cell-based or functional assay

Sequence of recombinant human PDGF-BB (P01127 82-190 limits assumed): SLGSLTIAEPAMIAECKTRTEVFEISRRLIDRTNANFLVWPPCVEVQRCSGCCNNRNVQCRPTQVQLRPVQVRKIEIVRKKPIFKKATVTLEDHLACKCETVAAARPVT

| Binder | hPDGF-BB IC50 (nM), hPDGF-BB-induced NIH-3T3 cell proliferation [nM] |
| --- | --- |
| B17 | 0.183 |
| B18 | 0.659 |
| B19 | 0.335 |
| B20 | 0.571 |
